Reference: PMC4119599 (Biochemistry, 2011)

What was measured:
mtMenB [1] = target: T1, mtMenB (Mycobacterium tuberculosis, UniProt P9WNP5); test: X-ray co-crystal structure, […] Å; format: binding; conditions: partial occupancy, weak density, acyl part not resolved; pH 8.0
ecMenB = ecMenB (Escherichia coli, UniProt P0ABU0); test: X-ray co-crystal structure, […] Å; format: binding; conditions: all six active sites of the hexamer; stable substrate analogue; pH 6.5
[2] = system: CC(C)(COP(=O)(O)OP(=O)(O)OC[C@H]1O[C@@H](n2cnc3c(N)ncnc32)[C@H](O)[C@@H]1OP(=O)(O)O)[C@@H](O)C(=O)NCCC(=O)NCCSC(=O)CCC(=O)c1ccccc1C(=O)O; test: purified protein; format: biochemical, Escherichia coli; conditions: pH 7.0; 25.0 °C
mtMenB [3] = target: T1, mtMenB; test: not stated; format: binding
[4] = system: CC(C)(COP(=O)(O)OP(=O)(O)OC[C@H]1O[C@@H](n2cnc3c(N)ncnc32)[C@H](O)[C@@H]1OP(=O)(O)O)[C@@H](O)C(=O)NCCC(=O)NCCSC(=O)CCC(=O)c1ccccc1C(=O)O; test: purified protein; conditions: pH 7.0; 25.0 °C
[5] = system: CC(C)(COP(=O)(O)OP(=O)(O)OC[C@H]1O[C@@H](n2cnc3c(N)ncnc32)[C@H](O)[C@@H]1OP(=O)(O)O)[C@@H](O)C(=O)NCCC(=O)NCCSC(=O)CCCc1ccccc1C(=O)O; test: purified protein; conditions: pH 7.0; 25.0 °C

T1 sequence (P9WNP5 whole entry): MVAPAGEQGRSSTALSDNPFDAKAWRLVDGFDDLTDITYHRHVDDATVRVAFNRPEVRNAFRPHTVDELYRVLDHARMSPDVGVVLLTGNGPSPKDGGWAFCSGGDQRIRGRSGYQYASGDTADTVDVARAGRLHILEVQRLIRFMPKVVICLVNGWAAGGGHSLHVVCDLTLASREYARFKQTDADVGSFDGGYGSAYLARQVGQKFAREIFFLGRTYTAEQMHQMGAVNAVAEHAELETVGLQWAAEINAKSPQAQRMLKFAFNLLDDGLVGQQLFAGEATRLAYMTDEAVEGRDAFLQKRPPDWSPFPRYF
Chain of ecMenB (P0ABU0 whole entry): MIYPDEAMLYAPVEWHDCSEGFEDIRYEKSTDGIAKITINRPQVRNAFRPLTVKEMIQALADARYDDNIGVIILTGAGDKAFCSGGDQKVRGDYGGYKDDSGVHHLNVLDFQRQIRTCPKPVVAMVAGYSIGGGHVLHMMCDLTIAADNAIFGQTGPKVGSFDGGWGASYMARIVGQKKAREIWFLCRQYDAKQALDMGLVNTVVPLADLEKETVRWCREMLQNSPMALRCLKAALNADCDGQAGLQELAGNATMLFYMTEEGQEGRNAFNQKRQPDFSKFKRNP

CC(C)(COP(=O)(O)OP(=O)(O)OC[C@H]1O[C@@H](n2cnc3c(N)ncnc32)[C@H](O)[C@@H]1OP(=O)(O)O)[C@@H](O)C(=O)NCCC(=O)NCCNC(=O)CCC(=O)c1ccccc1C(=O)O [OSB-NCoA]
X-ray co-crystal structure, 2.25 Å (mtMenB [1]): Density for OSB-NCoA can be observed but is weak in chain C
X-ray co-crystal structure, 2.00 Å (ecMenB): In the structure of OSB-NCoA bound to ecMenB, the ligand can be observed in all six

(Escherichia coli K-12)
Km [2]: 25.9 ± 3.3 µM

COC(=O)c1ccccc1C(=O)CCC(=O)SCCNC(=O)CCNC(=O)[C@H](O)C(C)(C)COP(=O)(O)OP(=O)(O)OC[C@H]1O[C@@H](n2cnc3c(N)ncnc32)[C@H](O)[C@@H]1OP(=O)(O)O [OSB-CoA methyl ester]
Kd (mtMenB [3]): 11.5 ± 1.2 µM

(Mycobacterium tuberculosis H37Rv)
Km [4]: 22.4 ± 2.1 µM
Km [5]: 106 ± 31 µM
kcat/Km [5]: 2.4 ± 0.7 M⁻¹ s⁻¹
